Data published in US20140356345.

T1: 33-mer gliadin peptide
T1 sequence: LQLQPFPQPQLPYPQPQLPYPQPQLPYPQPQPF

T2: 33-mer gliadin peptide
T2 chain: T1 sequence

B1: endopep-140 (protein)
chain: MPDLPTQRRSPRRSRRPAVLARLAGLRVGALVLALAVTTLTLISMPSANAAPAKPVVPHAKASSPTAQGQHPTSRVCRTPGRANEMTCLAMVRDDVIGPKGVQANDAPAGFGPADLLNAYNLPSAGSTETVAIVDAFDNPNAEADLGVYRQQYGLPACTTANGCFKKIDQRGGTSYPPPDAGWAGEIALDIDMVSAICPTCKILLVEADDNYMDNLGTAVNQAVSQGAKFVSNSYGGSEGSDEGQADDAYFHHDGVAITASSGDSGYGASYPAASPYVTSVGGTSLAKDTSSSRGWTESTWNGAGSGCSAYETKPSFQKDTGCARRTIADVSAVADPNTGVAVYNGGWHVYGGTSVSAPIIASVYALGGAPAAGSAPNSFPYDHPADLNDVTSGSNGSCSPAYLCTAGTGYDGPTGLGTPNGIAAFRSGPHAVVTGTVTDGTAPLASAQVKAGDVTATTDGQGHYTLSVPPGTYDVSASKFGYTGKTISGVQVADGQTVTEDFALTAKARVDVSGLVRDGSGHGWPVYATVRVKDQPTAVAYTDPKTGRYTLSLPTDDTYTLQVDPLYPGYTQDSHDVTVTSADVVHDVNVAVDQTTCSAPGYSYHYAGATQPFDGTTAPAGWTVDDKVGNGQTWVFNDPGSRGNKTGGTGGFAVIDSDHYGSGNTQDSTLFSPVTDFSARTHPILSFRSDWYGYTGQAGDLDLSVDGGTTWTNLKHYTASERGPRTETMDLSAAAGKSAVQVRFHFTGKFGYYWQVDDVFLGDRTCDPTSGGLVVGQVTDANTGAGVAGATVTSVDRPAEHATSAATPDDPNLGDGLFWMFSSVTGSHKFTATAGNYDSHDVTVNVAANWATAADIALSAPRLTVTPGAISKTVGWQKAATAALTLKNTGTSPVTAKIGEQPGGSTTATAGAPLQRVKGDFASGRLQQGKASGAKAGVTPYAPPWTAIADYASPIMDNGAVALNGKIYSVAGVDGANVLNKAYAYDPGTQAWTAIAPLATGREAPQATTTGGKLYVTGGWGSTGAAVAKTEIFDPSSGAWSAGADNPKPYAGSGAAVLDGKIYVVGGCLATCGTKDVQVYDPAANSWSSGPAYPENTAWLGCAGIDGKLYCAGGSAAASTKHGYVLDPASGTWSPIADLPIDLWAMGYSAANGKLIVSGGVTNGASTLTNQGFAYDPSANSWTALPNSNNALYRGASACGFYKIGGSLGQFNAVKSGEVLPGYDQCASTADVPWLSEDKTEVTIQPGQSVKVNVTLDANVPAITQPGTYTAQLTVGAKTPYAIPPVAVTMTVNPPGTWGKITGTLTGAGCTGSPAPLTGATLQIDSWAASYTLKTDKNGQYALWLDVRNNPLTLIAAKDGWAPQTRNVKITKLTSTTADFTLKPDHTCS
B2: endopep-40 (protein)
chain: MSRRVTGTILGGLILAMVPFLSTAANAAPQAAPASVSHPFHHSCATVKPGRASCNALVRSDIAQSAATLAHQAAAPSGLSPANLQSAYKLPSSTAGSGQTVAIVDAYDAPTAEADLNVYRSQFGLGACTTANGCFKKVDQNGGTSYPRKDGGWAQEISLDLDMVSAVCPNCKIVLVEAKTNSFANLGTAENTAASLANVISNSYGGSDASDASYGSYYNHPGKAITVSSGDAGYGVEYPASSHYVTAVGGTSLRTASTSRGWSETAWSGAGSGCSAYNTALSGQSGLTGCSRRAVADVSAVADPATGVAVYDSTAYQGQSGWMVFGGTSVAAPIIGGVYGLAANAASIDNNYPYAHTSSLFDVTSGSNGTCTTTKWCTAGTGWDGPTGLGTPNGTGAF

Key:
[1] = test system: T1, 33-mer gliadin peptide
[2] = target: T2, 33-mer gliadin peptide
[3] = target: gliadin (Sigma G3375)

| Molecule | residual intact 33-mer (1-33) by HPLC-MS, Control T2h (pepsin alone, 1 mg/ml), pH 3 [1] | 33-mer disappearance by HPLC-MS, 8 uU enzyme, 2 h, pH 3 [2] | residual intact 33-mer (1-33) by HPLC-MS, T0 [2] | residual intact 33-mer (1-33) by HPLC-MS, T30 + pepsin (1 mg/ml), 4 uU enzyme, pH 3 [2] | residual intact 33-mer (1-33) by HPLC-MS, T30, 4 uU enzyme, pH 3 [2] | residual intact 33-mer (1-33) by HPLC-MS, T2h + pepsin (1 mg/ml), 4 uU enzyme, pH 3 [2] | residual intact 33-mer (1-33) by HPLC-MS, T2h, 4 uU enzyme, pH 3 [2] | proteolysis of gliadin, SDS-PAGE, 5 uU enzyme, pH 3, 37 C [3] | 33-mer disappearance by HPLC-MS, 9 uU enzyme, 2 h, pH 3 [2] | residual intact 33-mer (1-33) by HPLC-MS, T30 + pepsin (1 mg/ml), 2 uU enzyme, pH 3 [2] | residual intact 33-mer (1-33) by HPLC-MS, T30, 2 uU enzyme, pH 3 [2] | residual intact 33-mer (1-33) by HPLC-MS, T2h + pepsin (1 mg/ml), 2 uU enzyme, pH 3 [2] | residual intact 33-mer (1-33) by HPLC-MS, T2h, 2 uU enzyme, pH 3 [2] |
| --- | --- | --- | --- | --- | --- | --- | --- | --- | --- | --- | --- | --- | --- |
| pepsin | 95% residual | – | – | – | – | – | – | – | – | – | – | – | – |
| B1 | – | complete 33-mer disappearance after 2 h at pH 3 (not shown) | 100% residual | 70% residual | 50% residual | 45% residual | 20% residual | cleaved ... into small peptides to almost complete digestion in 2 hours | – | – | – | – | – |
| B2 | – | – | 100% residual | – | – | – | – | cleaved ... into small peptides to almost complete digestion in 2 hours | complete 33-mer disappearance after 2 h at pH 3 (not shown) | 70% residual | 50% residual | 30% residual | 20% residual |
